Measured values as given in patent publication US20190111150A1 (AbbVie / Abbott, published 2019).
Residue numbers refer to the chain shown, from its start.

B1: anti-CD71-TF02.13-2011, protease-activated (cleaved) (antibody, not shown: small tags and cut ends)
heavy: not shown
light: DIQMTQSPSSLSASVGDRVTITCSASSSVYYMYWFQQKPGKAPKLWIYSTSNLASGVPSRFSGSGSGTDYTLTISSMQPEDFATYYCQQRRNYPYTFGQGTKLEIKRTVAAPSVFIFPPSDEQLKSGTASVVCLLNNFYPREAKVQWKVDNALQSGNSQESVTEQDSKDSTYSLSSTLTLSKADYEKHKVYACEVTHQGLSSPVTKSFNRGEC
notes: the mask is released
B2: anti-CD71-TF02.13-2011-vcMMAE E2, protease-activated (cleaved) (antibody, not shown: small tags and cut ends)
heavy: not shown
light: B1 light
modifications: vc-MMAE on interchain cysteine thiols; drug load 2 per antibody; chain and positions not stated
notes: m14 after protease treatment; the mask is released
B3: anti-CD71 activatable antibody anti-CD71-TF02.13-2011, intact (uncleaved) (antibody, human IgG1, kappa)
heavy: not shown
light: NLCTEHSAALDCRSYGGGSSGGSISSGLLSGRSDNPGGGSDIQMTQSPSSLSASVGDRVTITCSASSSVYYMYWFQQKPGKAPKLWIYSTSNLASGVPSRFSGSGSGTDYTLTISSMQPEDFATYYCQQRRNYPYTFGQGTKLEIKRTVAAPSVFIFPPSDEQLKSGTASVVCLLNNFYPREAKVQWKVDNALQSGNSQESVTEQDSKDSTYSLSSTLTLSKADYEKHKVYACEVTHQGLSSPVTKSFNRGEC
notes: copies: 2 + 2
B4: anti-CD71 conjugated activatable antibody anti-CD71-TF02.13-2011-vcMMAE E2, intact (uncleaved) (antibody, human IgG1, kappa)
heavy: not shown
light: B3 light
modifications: vc-MMAE (maleimide caproyl-valine-citrulline linker with monomethyl auristatin E) on interchain cysteine thiols after partial TCEP reduction; drug load 2 per activatable antibody; chain and positions not stated
notes: E2 = enriched for drug load 2 (DAR about 2); also called AADC; copies: 2 + 2
B5: anti-CD71 Ab21.12 LcB:HcC antibody (antibody, V domains shown)
VH: QVQLVQSGAEVKKPGASVKMSCKASGYTFTSYWMHWVRQAPGQGLEWIGAIYPGNSETGYAQKFQGRATLTADTSTSTAYMELSSLRSEDTAVYYCTRENWDPGFAFWGQGTLITVSS
VL: DIQMTQSPSSLSASVGDRVTITCSASSSVYYMYWFQQKPGKAPKLWIYSTSNLASGVPSRFSGSGSGTDYTLTISSMQPEDFATYYCQQRRNYPYTFGQGTKLEIK
notes: Humanized; also called huCD71 21.12 Ab; anti-CD71 21.12 antibody
B6: conjugated antibody anti-CD71 Ab21.12-vcMMAE E2 (antibody, V domains shown)
VH: B5 VH
VL: B5 VL
modifications: vc-MMAE conjugated; DAR about 2 (E2); positions not given
notes: Unmasked antibody drug conjugate of Ab21.12
B7: humanized anti-CD71 antibody Ab21.10 LcB:HcA (antibody, V domains shown)
VH: B5 VH with M20V, I48M, A68V, L70M, A72R, A79V, T97A, I114V
VL: B5 VL
notes: Detected with anti-human IgG

Assays:
[1] = target: T1, recombinant cynomolgus monkey CD71 extracellular domain (cynomolgus monkey, UniProt H9EXL1 89-760 (rhesus entry)); test: ELISA on plate-coated recombinant cynomolgus CD71 (1 µg/mL), goat anti-human HRP, TMB, Abs 450
T1 construct: extracellular domain; also called rcCD71; monkey recombinant CD71
Description: (§1) The amount of bound antibody in each sample was detected by incubation and detection by goat anti-human antibody conjugated to horseradish peroxidase and Ultra TMB (Thermo Fisher Scientific) detection.

[2] = target: T2, cynomolgus monkey CD71 on cells (cynomolgus monkey, UniProt H9EXL1 1-760 (rhesus entry)); test: flow cytometry on CHO-K1 cells expressing cynomolgus CD71; Kapp
T2 construct: whole, on cells; also called cell-surface cynomolgus CD71; CHO w/ Cynomolgus CD71
Excerpt: (§2) The flow cytometry results reflect the average measured Kapp from four human cell lines (HCC1806 human breast cancer, HT-29 human colorectal cancer, NCI-H292 human lung cancer, and NCI-H520 human lung cancer) and one CHO-K1 cell line expressing cynomolgus monkey CD71.

[3] = target: T3, human CD71 on the surface of human cell lines (human, UniProt P02786 1-760); test: flow cytometry, average of 4 human cell lines (HCC1806, HT-29, NCI-H292, NCI-H520); Kapp
T3 construct: whole, on cells; also called cell-surface human CD71; CD71 on BxPC3, NCI-H292, HCC1806, HT-29, NCI-H520 cells
Excerpt: as §2

[4] = target: T4, recombinant human CD71 extracellular domain (human, UniProt P02786 89-760); test: ELISA, recombinant human CD71 (R&D Systems) coated at 1 ug/mL; Kd(app)
T4 construct: extracellular domain; Treated as one molecule; also called rhCD71; human CD71 ECD
Description: as §1

[5] = target: T4, recombinant human CD71 extracellular …; test: ELISA on coated recombinant human CD71 ECD (rhCD71); Kapp
Description: (§3) In the ELISA examples, recombinant cynomolgus or human CD71 ECD proteins were coated on ELISA plates, and then incubated with one of a range of concentrations of the test articles of the present disclosure, followed by measurement of the amount of bound test article with a secondary antibody.

[6] = target: T1, recombinant cynomolgus monkey CD71 …; test: ELISA, recombinant cynomolgus CD71 (R&D Systems) coated at 1 ug/mL; Kd(app)
Description: as §1

[7] = target: T1, recombinant cynomolgus monkey CD71 …; test: ELISA on coated recombinant cynomolgus CD71 ECD (rcCD71); Kapp
Description: as §3

[8] = target: T5, human FcRn (human, UniProt P55899 24-297; P61769 21-119); test: SPR (Biacore), antibody immobilized, FcRn injected, pH 6.0, steady state affinity model; FcRn at pH 6.0
T5 construct: also called Hu FcRn; neonatal Fc receptor
Description: The surfaces were regenerated with an injection of 100 mM HCl for two seconds followed by HBS-EP+, pH 7.4. Samples were prepared and run in two running buffer systems, MES-EP+ pH 6.0 and HBS-EP pH 7.4. Three experiments with the use of three different CMS chips were run for each sample (each in duplicate) to account for instrument, surface and operator error. The results of these three experiments were averaged.
(§4) All recombinant human FcγRIIIa V158 data and FcγRIIIa F158 data were fitted to 1:1 binding fit model with Rmax fixed local to account for variability in capture levels. Recombinant human FcγRIIb, FcγRIIa H131, and FcRn binding data were fitted to a steady state affinity model. Biacore T200 Evaluation Software Version 2.0 was used to fit all the data.

[9] = target: T6, recombinant human FcγRIIIa F158 (human, UniProt P08637 17-208); test: SPR (Biacore), FcγR captured via 6xHis tag, 1:1 binding fit
T6 construct: also called huFcγRIIIa F158
Description: (§5) Mouse anti-6×His antibodies were directly immobilized on a CMS chip by amine coupling according to manufacturer's protocol to the density of 10000 RU. Human FcγRs were then captured on Flow Cells 2, 3 and 4 to achieve capture level of the FcγRs of 250-500 RU. Flow Cell 1 was used as a reference surface. HBS-EP+ buffer (GE, Healthcare) was used as the running buffer. […] The chip surfaces were regenerated with an injection of 100 mM HCl at a flow rate of 100 μL/minute for two seconds over all four flow cells. Three experiments with the use of three different CMS chips were run for each sample (each in duplicate) to accommodate all types of experimental error (instrument, surface and operator). The results of these three experiments were averaged.
as §4

[10] = target: T7, recombinant human FcγRIIIa V158 (human, UniProt P08637 17-208); test: as above
T7 construct: also called huFcγRIIIa V158
Description: as §5, §4

[11] = target: T1, recombinant cynomolgus monkey CD71 …; test: ratio of Kapp; ELISA on rcCD71
Description: as §3

[12] = target: T3, human CD71 on the surface of human cell …; test: ratio of Kapp; flow cytometry, average of 4 human cell lines
Excerpt: as §2

[13] = target: T4, recombinant human CD71 extracellular …; test: ratio of Kapp; ELISA on rhCD71
Description: as §3

[14] = target: T2, cynomolgus monkey CD71 on cells; test: ratio of Kapp; flow cytometry on CHO-K1 cyno CD71
Excerpt: as §2

[15] = target: T2, cynomolgus monkey CD71 on cells; test: flow cytometry on CHO cells expressing cynomolgus CD71, Alexa Fluor 647 goat anti-human IgG (MFI)
[16] = target: T8, recombinant human FcγRIIa H131 (human, UniProt P12318 36-218, limits assumed); test: SPR (Biacore), FcγR captured via 6xHis tag, steady state affinity model
T8 construct: also called huFcγRIIa H131; FcγIIa H131
T8 sequence (looked up): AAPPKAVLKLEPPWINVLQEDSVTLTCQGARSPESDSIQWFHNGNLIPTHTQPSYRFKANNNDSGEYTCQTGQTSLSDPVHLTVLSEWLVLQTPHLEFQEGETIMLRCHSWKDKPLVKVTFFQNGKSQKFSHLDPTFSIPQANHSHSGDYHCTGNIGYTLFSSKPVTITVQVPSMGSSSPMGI
Description: as §5, §4

[17] = target: human FcγRI (human, UniProt P12314 16-288, limits assumed); test: FcγRI competition binding ELISA (results not shown)
[18] = target: T9, recombinant mouse CD71 (mouse, UniProt Q62351 89-763); test: ELISA on recombinant mouse CD71 (ECD)
T9 construct: extracellular domain; also called mouse CD71 ECD

[19] = target: T10, rat CD71 on rat H-4-II-E hepatoma cells (rat, UniProt Q99376 1-761); test: flow cytometry on rat H-4-II-E hepatoma cells
T10 construct: whole, on cells; also called rat CD71-expressing cell line

[20] = target: T2, cynomolgus monkey CD71 on cells; test: flow cytometry on cynomolgus monkey primary kidney epithelial cells; apparent Kd (Kapp)
[21] = target: T4, recombinant human CD71 extracellular …; test: ELISA on recombinant CD71 ECD; apparent Kd (Kapp)
[22] = target: T1, recombinant cynomolgus monkey CD71 …; test: ELISA on recombinant CD71 ECD; apparent Kd (Kapp)
[23] = target: T3, human CD71 on the surface of human cell …; test: FACS on NCI H292 cells; apparent Kd (Kapp)
[24] = target: T3, human CD71 on the surface of human cell …; test: flow cytometry on human BxPC3 cells; apparent Kd (Kapp)
[25] = target: T3, human CD71 on the surface of human cell …; test: FACS on cells

T3 sequence (P02786 whole entry): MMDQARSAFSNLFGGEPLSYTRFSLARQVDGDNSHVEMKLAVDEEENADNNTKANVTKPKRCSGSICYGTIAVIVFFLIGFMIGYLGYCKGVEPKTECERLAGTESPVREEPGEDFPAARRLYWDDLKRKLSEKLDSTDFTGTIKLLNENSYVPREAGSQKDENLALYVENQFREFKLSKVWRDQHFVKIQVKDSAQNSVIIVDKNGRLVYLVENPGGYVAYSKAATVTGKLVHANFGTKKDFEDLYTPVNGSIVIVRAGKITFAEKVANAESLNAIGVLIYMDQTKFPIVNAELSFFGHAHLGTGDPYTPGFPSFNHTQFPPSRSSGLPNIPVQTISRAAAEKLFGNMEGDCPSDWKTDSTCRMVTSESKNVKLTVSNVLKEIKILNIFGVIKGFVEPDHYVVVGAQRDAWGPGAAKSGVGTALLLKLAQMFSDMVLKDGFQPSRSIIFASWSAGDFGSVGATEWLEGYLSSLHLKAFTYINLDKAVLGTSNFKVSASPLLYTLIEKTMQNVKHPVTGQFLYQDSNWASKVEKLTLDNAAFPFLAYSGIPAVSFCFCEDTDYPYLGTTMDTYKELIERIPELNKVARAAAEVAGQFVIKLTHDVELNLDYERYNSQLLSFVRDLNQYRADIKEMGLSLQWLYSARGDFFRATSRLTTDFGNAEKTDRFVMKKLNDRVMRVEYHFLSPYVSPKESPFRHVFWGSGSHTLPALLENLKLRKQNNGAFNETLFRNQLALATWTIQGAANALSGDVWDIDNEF
T1 sequence (chain, as listed by the source): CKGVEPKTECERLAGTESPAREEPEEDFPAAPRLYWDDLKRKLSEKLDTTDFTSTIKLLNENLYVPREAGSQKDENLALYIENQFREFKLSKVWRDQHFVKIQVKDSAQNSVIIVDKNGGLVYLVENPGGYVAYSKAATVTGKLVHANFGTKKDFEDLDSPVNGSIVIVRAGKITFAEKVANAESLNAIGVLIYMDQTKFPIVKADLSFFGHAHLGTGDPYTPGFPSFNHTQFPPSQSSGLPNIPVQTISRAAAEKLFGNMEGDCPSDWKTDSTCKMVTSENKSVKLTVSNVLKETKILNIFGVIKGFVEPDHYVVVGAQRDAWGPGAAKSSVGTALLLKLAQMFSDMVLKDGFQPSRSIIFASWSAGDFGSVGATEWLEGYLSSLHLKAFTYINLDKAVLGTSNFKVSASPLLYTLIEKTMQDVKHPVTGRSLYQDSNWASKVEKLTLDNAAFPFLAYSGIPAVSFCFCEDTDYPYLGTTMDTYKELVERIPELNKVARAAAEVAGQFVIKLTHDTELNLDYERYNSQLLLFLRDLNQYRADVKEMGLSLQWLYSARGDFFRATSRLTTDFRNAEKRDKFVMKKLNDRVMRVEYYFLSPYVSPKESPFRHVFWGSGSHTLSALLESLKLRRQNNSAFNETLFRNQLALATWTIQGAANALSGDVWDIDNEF
T2 sequence (chain, as listed by the source): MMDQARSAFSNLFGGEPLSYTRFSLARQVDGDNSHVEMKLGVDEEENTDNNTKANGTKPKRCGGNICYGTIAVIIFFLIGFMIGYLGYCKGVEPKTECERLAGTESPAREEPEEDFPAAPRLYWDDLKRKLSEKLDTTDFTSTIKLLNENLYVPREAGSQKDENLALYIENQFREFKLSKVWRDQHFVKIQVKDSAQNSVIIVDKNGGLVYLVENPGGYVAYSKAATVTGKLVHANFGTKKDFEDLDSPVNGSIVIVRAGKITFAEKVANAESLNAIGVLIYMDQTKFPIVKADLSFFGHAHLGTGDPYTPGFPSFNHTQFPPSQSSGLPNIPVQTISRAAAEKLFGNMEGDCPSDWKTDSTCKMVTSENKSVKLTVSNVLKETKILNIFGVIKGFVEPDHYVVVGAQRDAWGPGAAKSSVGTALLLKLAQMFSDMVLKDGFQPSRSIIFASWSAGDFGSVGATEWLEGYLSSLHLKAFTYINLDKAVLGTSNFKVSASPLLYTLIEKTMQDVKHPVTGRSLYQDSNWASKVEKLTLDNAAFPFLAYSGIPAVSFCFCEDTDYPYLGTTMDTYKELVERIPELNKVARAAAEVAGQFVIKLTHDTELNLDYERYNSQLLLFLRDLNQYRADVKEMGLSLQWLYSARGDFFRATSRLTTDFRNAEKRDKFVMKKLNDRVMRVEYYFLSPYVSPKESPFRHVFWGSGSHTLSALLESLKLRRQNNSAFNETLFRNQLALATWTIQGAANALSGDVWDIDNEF
T4 sequence (P02786 89-760): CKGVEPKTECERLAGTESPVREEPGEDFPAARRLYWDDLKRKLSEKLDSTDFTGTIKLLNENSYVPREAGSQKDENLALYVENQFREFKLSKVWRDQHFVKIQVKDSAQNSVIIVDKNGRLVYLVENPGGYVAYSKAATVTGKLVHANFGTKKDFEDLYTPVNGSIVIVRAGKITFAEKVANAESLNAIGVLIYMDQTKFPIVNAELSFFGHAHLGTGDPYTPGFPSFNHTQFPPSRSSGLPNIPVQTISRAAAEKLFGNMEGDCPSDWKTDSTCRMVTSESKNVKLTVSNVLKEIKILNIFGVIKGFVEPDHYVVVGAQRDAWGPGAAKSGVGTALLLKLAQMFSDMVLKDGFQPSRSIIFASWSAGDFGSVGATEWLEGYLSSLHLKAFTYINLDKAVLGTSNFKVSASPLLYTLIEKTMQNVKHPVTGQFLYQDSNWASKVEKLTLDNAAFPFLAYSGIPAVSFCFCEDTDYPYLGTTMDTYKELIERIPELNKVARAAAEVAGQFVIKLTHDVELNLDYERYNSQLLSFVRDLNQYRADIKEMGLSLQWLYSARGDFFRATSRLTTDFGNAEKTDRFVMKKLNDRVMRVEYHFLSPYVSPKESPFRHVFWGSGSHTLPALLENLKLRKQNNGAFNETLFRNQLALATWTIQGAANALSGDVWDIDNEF
T5 sequence (P55899 24-297 limits assumed, form in doubt, chain 1 of 2): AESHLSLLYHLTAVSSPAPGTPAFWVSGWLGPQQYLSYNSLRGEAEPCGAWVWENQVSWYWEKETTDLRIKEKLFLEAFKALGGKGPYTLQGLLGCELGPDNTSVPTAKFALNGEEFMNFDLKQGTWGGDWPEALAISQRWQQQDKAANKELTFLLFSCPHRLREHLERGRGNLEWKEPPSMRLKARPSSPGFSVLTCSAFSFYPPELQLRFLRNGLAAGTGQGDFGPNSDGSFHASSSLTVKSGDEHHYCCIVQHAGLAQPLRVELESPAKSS
T5 sequence (P61769 21-119 limits assumed, form in doubt, chain 2 of 2): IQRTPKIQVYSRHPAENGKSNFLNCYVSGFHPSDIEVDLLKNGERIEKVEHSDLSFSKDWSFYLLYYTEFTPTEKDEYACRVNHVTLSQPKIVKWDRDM
T6 sequence (P08637 17-208 limits assumed): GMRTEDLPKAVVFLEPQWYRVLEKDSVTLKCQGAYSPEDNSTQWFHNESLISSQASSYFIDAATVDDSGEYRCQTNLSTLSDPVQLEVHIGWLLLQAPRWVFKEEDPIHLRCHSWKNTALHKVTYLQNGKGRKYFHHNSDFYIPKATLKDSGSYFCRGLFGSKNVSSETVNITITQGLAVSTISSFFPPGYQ
Chain of human FcγRI (P12314 16-288 limits assumed): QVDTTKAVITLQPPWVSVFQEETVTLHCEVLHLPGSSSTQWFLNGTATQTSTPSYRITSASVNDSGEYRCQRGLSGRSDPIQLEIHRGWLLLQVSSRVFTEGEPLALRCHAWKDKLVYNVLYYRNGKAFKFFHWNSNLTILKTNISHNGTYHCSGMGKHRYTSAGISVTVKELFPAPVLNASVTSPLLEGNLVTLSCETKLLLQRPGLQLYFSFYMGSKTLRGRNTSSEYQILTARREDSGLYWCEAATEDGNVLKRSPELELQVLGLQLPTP
T9 sequence (Q62351 89-763): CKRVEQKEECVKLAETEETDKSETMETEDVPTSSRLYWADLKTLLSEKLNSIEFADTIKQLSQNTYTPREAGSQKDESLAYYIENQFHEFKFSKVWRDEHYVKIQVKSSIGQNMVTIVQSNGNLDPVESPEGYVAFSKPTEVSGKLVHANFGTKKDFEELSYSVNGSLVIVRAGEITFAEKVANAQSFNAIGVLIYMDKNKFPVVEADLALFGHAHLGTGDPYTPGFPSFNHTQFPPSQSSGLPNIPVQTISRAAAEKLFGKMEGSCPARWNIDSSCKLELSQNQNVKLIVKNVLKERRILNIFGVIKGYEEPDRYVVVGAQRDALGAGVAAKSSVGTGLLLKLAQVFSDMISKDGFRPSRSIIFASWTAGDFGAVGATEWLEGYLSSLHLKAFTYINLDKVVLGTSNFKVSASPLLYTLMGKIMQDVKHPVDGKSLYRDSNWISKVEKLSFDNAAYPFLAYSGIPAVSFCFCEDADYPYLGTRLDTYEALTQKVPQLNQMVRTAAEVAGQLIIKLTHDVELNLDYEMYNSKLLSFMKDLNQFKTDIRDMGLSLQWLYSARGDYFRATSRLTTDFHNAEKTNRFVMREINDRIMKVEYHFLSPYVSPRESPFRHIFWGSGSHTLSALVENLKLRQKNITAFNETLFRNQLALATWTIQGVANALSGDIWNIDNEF
T7 sequence (P08637 17-208 F176V): as the sequence (P08637 17-208 limits assumed) above, with F160V counted along it

Row | Binder | EC50 (read off the curve) [1] [nM] | Kd [2] [nM] | Kd [3] [nM] | Kd [4] [nM] | Kd [5] [nM] | Kd [6] [nM] | Kd [7] [nM] | also measured
1 | B1 | ~0.06 | 0.5 | 2 | 0.04 | 0.06 | 0.06 | 0.04 | –
2 | B2 | ~0.07 | 0.7 | 2 | 0.05 | 0.05 | 0.07 | 0.04 | –
3 | B3 | ~1 | 28 | 106 | 0.42 | 1.94 | 1.24 | 1.11 | Kd [8]: 4700 nM; Kd [9]: 1800 nM; Kd [10]: 180 nM; Ratio anti-CD71-TF02.13-2011/Ab21.12 [11]: 37; Ratio anti-CD71-TF02.13-2011/anti-CD71-TF02.13-2011, matriptase activated [11]: 28; Ratio anti-CD71-TF02.13-2011/Ab21.12 [12]: 127; Ratio anti-CD71-TF02.13-2011/anti-CD71-TF02.13-2011, matriptase activated [12]: 55; Ratio anti-CD71-TF02.13-2011/Ab21.12 [13]: 65; Ratio anti-CD71-TF02.13-2011/anti-CD71-TF02.13-2011, matriptase activated [13]: 32; Ratio anti-CD71-TF02.13-2011/Ab21.12 [14]: 93; Ratio anti-CD71-TF02.13-2011/anti-CD71-TF02.13-2011, matriptase activated [14]: 56; EC50 (read off the curve) [15]: ~30 nM; Kd [16]: 4700 nM
4 | B4 | ~1 | 35 | 98.1 | 0.48 | 2.58 | 1.49 | 1.02 | Kd [8]: 5300 nM; Kd [9]: 2100 nM; EC50 (read off the curve) [15]: ~30 nM; binding result [17]: binds; Kd [16]: 6200 nM
5 | B5 | – | 0.3 | 0.8 | – | 0.03 | – | 0.03 | binding result [18]: no binding; binding result [19]: no binding; Kd [20]: 3 nM; Kd [21]: 0.3 nM; Kd [22]: 0.4 nM; Kd [23]: 2.29 nM; Kd [24]: 3 nM
6 | B6 | – | – | – | – | 0.04 | – | 0.03 | –
7 | B7 | – | – | – | – | – | – | – | binding result [25]: binds
